Experimental data reported in patent US20250304717A1, “CAMPTOTHECIN DERIVATIVE AND LIGAND-DRUG CONJUGATE” (HAINAN SIMCERE ZAIMING PHARMACEUTICAL CO., LTD., priority 2022, published 2025).

Biological target: human ROR1 on stably transfected cell strain MCF7-hROR1 clone 2G2 (human, UniProt Q01973 30-406)
Assay: flow cytometry (FACS) on MCF7-hROR1 clone 2G2 cells, 5-fold dilutions from 100 nM, Alexa Fluor 647 anti-human IgG secondary antibody, four-parameter fit
Procedure: Stably transfected cell strain MCF7-hROR1 clone 2G2 constructed in the steps described above was expanded to a logarithmic growth phase in a T-75 cell culture flask, and the medium supernatant was discarded after centrifugation. The cell pellet was washed twice with PBS. […] After the mixture was washed twice with PBS, a secondary antibody was added: Alexa Fluor® 647 AffiniPure Goat Anti-Human IgG (H+L) (purchased from Jackson Immuno, Cat. No: 109-605-088), and the mixture was incubated at 4° C. for 1 h. After the mixture was washed twice with PBS, the cells were resuspended, and detected and analyzed by FACS (FACS Canto™, purchased from BD Biosciences). Data were analyzed by four-parameter curve fitting using Graphpad Prism software to give EC₅₀ values.

Binder | EC50 [pM]
ADC-L1-19-9 (antibody, human IgG1, kappa, V domains shown, drug-linker L1-19 on cysteine thiols after TCEP reduction; positions not given; DAR 7.3 for the whole conjugate, Antibody-drug conjugate) VH: EVQLLESGGGLVQPGGSLRLSCAASGFTFSNYAMSWVRQAPGKGLEWVSSISHNSGSTYYADSVKGRFTISRDNSKNTLYLQMNSLRAEDTAVYYCAKFISARKSLGRSYSNGMDVWGQGTLVTVSS VL: QSVLTQPPSASGTPGQRVTISCTGSSSNIGSNDVTWYQQLPGTAPKLLIYADSKRPSGVPDRFSGSKSGTSASLAISGLRSEDEADYYCGTWDYSLSGYVFGGGTKLTVLR | 420
ADC-L1-19-P1-9 (antibody, human IgG1, kappa, V domains shown, drug-linker L1-19-P1 on cysteine thiols after TCEP reduction; positions not given; DAR 7.7 for the whole conjugate, Antibody-drug conjugate) VH: EVQLLESGGGLVQPGGSLRLSCAASGFTFSNYAMSWVRQAPGKGLEWVSSISHNSGSTYYADSVKGRFTISRDNSKNTLYLQMNSLRAEDTAVYYCAKFISARKSLGRSYSNGMDVWGQGTLVTVSS VL: QSVLTQPPSASGTPGQRVTISCTGSSSNIGSNDVTWYQQLPGTAPKLLIYADSKRPSGVPDRFSGSKSGTSASLAISGLRSEDEADYYCGTWDYSLSGYVFGGGTKLTVLR | 500
ADC-L1-0-9 (antibody, human IgG1, kappa, V domains shown, drug-linker L1-0 on cysteine thiols after TCEP reduction; positions not given; DAR 5.5 for the whole conjugate) VH: EVQLLESGGGLVQPGGSLRLSCAASGFTFSNYAMSWVRQAPGKGLEWVSSISHNSGSTYYADSVKGRFTISRDNSKNTLYLQMNSLRAEDTAVYYCAKFISARKSLGRSYSNGMDVWGQGTLVTVSS VL: QSVLTQPPSASGTPGQRVTISCTGSSSNIGSNDVTWYQQLPGTAPKLLIYADSKRPSGVPDRFSGSKSGTSASLAISGLRSEDEADYYCGTWDYSLSGYVFGGGTKLTVLR | 430
ROR1-Ab-2 (antibody, human IgG1, kappa, V domains shown, also called anti-human ROR1 monoclonal antibody ROR1-Ab-2) VH: EVQLLESGGGLVQPGGSLRLSCAASGFTFSNYAMSWVRQAPGKGLEWVSSISHNSGSTYYADSVKGRFTISRDNSKNTLYLQMNSLRAEDTAVYYCAKFISARKSLGRSYSNGMDVWGQGTLVTVSS VL: QSVLTQPPSASGTPGQRVTISCTGSSSNIGSNDVTWYQQLPGTAPKLLIYADSKRPSGVPDRFSGSKSGTSASLAISGLRSEDEADYYCGTWDYSLSGYVFGGGTKLTVLR | 980
ADC-L1-19-10 (antibody, human IgG1, kappa, V domains shown, drug-linker L1-19 on cysteine thiols after TCEP reduction; positions not given; DAR 7.2 for the whole conjugate, Antibody-drug conjugate) VH: QVQLRESGPGLVKPSETLSLTCTVSGFDISSYYMSWVRQPPGKGLEWIGAIGISGNAYYASWAKSRVTISRDTSKNQFSLKLSSVTAADTAVYYCARDHPTYGMDLWGPGTLVTVSS VL: SYELTQPPSVSVAPGKTARITCEGNNIGSKAVHWYQQKPGQAPVLVIYDDDERPSGIPERFSGSNSGNTATLTISRVEAGDEADYYCQVWDSSAYVFGGGTKLTVLR | 980
ADC-L1-19-P1-10 (antibody, human IgG1, kappa, V domains shown, drug-linker L1-19-P1 on cysteine thiols after TCEP reduction; positions not given; DAR 8.0 for the whole conjugate, Antibody-drug conjugate) VH: QVQLRESGPGLVKPSETLSLTCTVSGFDISSYYMSWVRQPPGKGLEWIGAIGISGNAYYASWAKSRVTISRDTSKNQFSLKLSSVTAADTAVYYCARDHPTYGMDLWGPGTLVTVSS VL: SYELTQPPSVSVAPGKTARITCEGNNIGSKAVHWYQQKPGQAPVLVIYDDDERPSGIPERFSGSNSGNTATLTISRVEAGDEADYYCQVWDSSAYVFGGGTKLTVLR | 570
ADC-L1-0-10 (antibody, human IgG1, kappa, V domains shown, drug-linker L1-0 on cysteine thiols after TCEP reduction; positions not given; DAR 7.5 for the whole conjugate) VH: QVQLRESGPGLVKPSETLSLTCTVSGFDISSYYMSWVRQPPGKGLEWIGAIGISGNAYYASWAKSRVTISRDTSKNQFSLKLSSVTAADTAVYYCARDHPTYGMDLWGPGTLVTVSS VL: SYELTQPPSVSVAPGKTARITCEGNNIGSKAVHWYQQKPGQAPVLVIYDDDERPSGIPERFSGSNSGNTATLTISRVEAGDEADYYCQVWDSSAYVFGGGTKLTVLR | 1250
ROR1-Ab-3 (antibody, human IgG1, kappa, V domains shown, also called anti-human ROR1 monoclonal antibody ROR1-Ab-3) VH: QVQLRESGPGLVKPSETLSLTCTVSGFDISSYYMSWVRQPPGKGLEWIGAIGISGNAYYASWAKSRVTISRDTSKNQFSLKLSSVTAADTAVYYCARDHPTYGMDLWGPGTLVTVSS VL: SYELTQPPSVSVAPGKTARITCEGNNIGSKAVHWYQQKPGQAPVLVIYDDDERPSGIPERFSGSNSGNTATLTISRVEAGDEADYYCQVWDSSAYVFGGGTKLTVLR | 910
